Substitutions are numbered along the chain they refer to.
B1: cysEX: mutant Thr167->Ala167 (protein, UniProt P0A9D4 1-273, looked up, variant T167A)
Serine acetyltransferase: MSCEELEIVWNNIKAEARTLADCEPMLASFYHATLLKHENLGSALSYMLANKLSSPIMPAIAIREVVEEAYAADPEMIASAACDIQAVRTRDPAVDKYSTPLLYLKGFHALQAYRIGHWLWNQGRRALAIFLQNQVSVTFQVDIHPAAKIGRGIMLDHATGIVVGEAAVIENDVSILQSVTLGGTGKSGGDRHPKIREGVMIGAGAKILGNIEVGRGAKIGAGSVVLQPVPPHTTAAGVPARIVGKPDSDKPSMDMDQHFNGINHTFEYGDGI
B2: cysEXII: triple mutant Lys97->Gln97, Gly238->Ser238, Phe267->Leu267 (protein, UniProt P0A9D4 1-273, looked up, variant K97Q G238S F267L)
Serine acetyltransferase: B1 Serine acetyltransferase with K97Q, A167T, G238S, F267L
B3: cysEIV: double mutant Ala237->Val237, Gly238->Ser238 (protein, UniProt P0A9D4 1-273, looked up, variant A237V G238S)
Serine acetyltransferase: B1 Serine acetyltransferase with A167T, A237V, G238S
B4: cysEV: triple mutant Val237, Ser238, Ile256 (protein, UniProt P0A9D4 1-273, looked up, variant A237V G238S M256I)
Serine acetyltransferase: B1 Serine acetyltransferase with A167T, A237V, G238S, M256I
B5: cysEVI: double mutant Ser238, Ile256 (protein, UniProt P0A9D4 1-273, looked up, variant G238S M256I)
Serine acetyltransferase: B1 Serine acetyltransferase with A167T, G238S, M256I
B6: cysEXXIII: triple mutant Ala167, Val237, Ser238 (protein, UniProt P0A9D4 1-273, looked up, variant T167A A237V G238S)
Serine acetyltransferase: B1 Serine acetyltransferase with A237V, G238S
B7: cysE-Del255: carboxyterminal deletion of 18 amino acids, terminal Asp255 (protein, UniProt P0A9D4 1-255, looked up, fragment)
chain: MSCEELEIVWNNIKAEARTLADCEPMLASFYHATLLKHENLGSALSYMLANKLSSPIMPAIAIREVVEEAYAADPEMIASAACDIQAVRTRDPAVDKYSTPLLYLKGFHALQAYRIGHWLWNQGRRALAIFLQNQVSVTFQVDIHPAAKIGRGIMLDHATGIVVGETAVIENDVSILQSVTLGGTGKSGGDRHPKIREGVMIGAGAKILGNIEVGRGAKIGAGSVVLQPVPPHTTAAGVPARIVGKPDSDKPSMD

Legend:
[1] = target: T1, serine acetyltransferase of cysteine-prototrophic revertant (Escherichia coli, UniProt P0A9D4, M256I); assay: Literature: end product inhibition of serine acetyltransferase from a cysteine-prototrophic revertant; format: biochemical
T1 construct: host or cells: cysteine-prototrophic revertant of a cysteine-auxotrophic strain mutagenized with ethyl methanesulfonate (Denk and Bock 1987)
Description: According to the literature reference mentioned, the feedback resistance of this mutant is elevated 10-fold. Consequently, the Ki of this mutant is approx. 0.01 mM, when comparison is made with the wild-type form.

[2] = target: T1, serine acetyltransferase of cysteine-prototrophic revertant; details: versus wild-type; cited from earlier work
[3] = target: wild-type form of serine acetyltransferase; details: 0.1 mM acetyl-coenzyme A and 1 mM L-serine; competitive; read-out: inhibitor constant Ki; cited from earlier work
serine acetyltransferase = assay: Serine acetyltransferase enzyme activity test with and without L-cysteine (inhibitor constant Ki, specific activity); format: biochemical, E. coli; details: for Ki: inhibitor L-cysteine
Excerpt: Any method which enables the activity of the serine acetyltransferase to be determined in the presence of cysteine can be used for determining the cysteine sensitivity of this enzyme. For example, the serine acetyltransferase activity can be determined using the method described by Kredich and Tomkins, J. Biol. Chem. 241: 4955-4965 (1966). In this test, the enzyme test mixture contains the substrate, L-serine, and the cofactor, acetyl-coenzyme A. The reaction is started by adding enzyme and monitored, in a spectro photometer, by observing the decrease in absorption at 232 nm which is elicited by the cleavage of the thioester bond in the acetyl-coenzyme A.
The above-described enzyme test is suitable for determining the cysteine sensitivity of any serine acetyltransferase enzyme, including the enzymes which have a modified carboxyl terminus. Inhibition of the serine acetyltransferase activity is tested in the presence of differing concentrations of L-cysteine in the reaction mixture. The catalytic activity of the different serine acetyltransferase enzymes is determined in the presence and absence of L-cysteine, and the inhibitor constant, Ki, is ascertained from this (Kredich and Tomkins, J. Biol. Chem., 241, 4955-4965 (1966)).
In order to investigate the biochemical basis of the cysteine secretion of the revertants, the activity of the serine acetyltransferase was determined in vitro, and the ability of cysteine to inhibit the enzyme was measured. For the determination, use was made of S30 extracts (cell homogenates centrifuged at 30,000 g and 4° C. for 20 minutes) of the selected revertants, the starting strains and the comparison strain, E. coli W3110 (ATTC 27325).
The biochemical parameters such as enzyme activity and inhibitor constant, Ki, were determined in an analogous manner to that described in Example 1.
The plasmids resulting from this cloning were designated pACYC184/cysE-Del in accordance with the extent of their deletion (cf. FIG. 9 for the plasmid map). Determination of the enzymic activity and the inhibitor constant, Ki, and also the cross-feeding test, were carried out in analogy with the description in Example 1. DNA sequence analysis was used to confirm that the deletions had been correctly introduced.
Determination of the enzymic activity and of the inhibitor constant Ki, and also the cross-feeding test, were carried out in analogy with the description in Example 1.

JM15attλ::cysE strains = assay: Cysteine production in 1 L fermenter, chromosomally encoded cysE alleles; format: cell-based, E. coli; details: single chromosomal copy
Description: For the purpose of being integrated into the chromosomal attachment site (attλ), the cysE alleles cysEIV, cysEX and cysEXI were cloned into the plasmid pRS551 (Simons et al., 1987, Gene 53: 85-96). For this, each cysE allele was amplified by PCR from the corresponding cysE plasmid. The oligonucleotides which were used, i.e. cysE-fwl and cysE-revl, are described in Example 1. The amplification was carried out as described in Example 3. The resulting fragments were cleaved with EcoRI/BamHI, purified through an agarose gel and ligated into vector pRS551 which had been cleaved with EcoRI and BamHI. This afforded the vector pRS551-based recombinant plasmids pRScysEIV, X and XI.
A heterogeneous lambda lysate, which contained recombinant cysE allele-carrying λRS45 derivatives in addition to λRS45 phages, was produced in vivo by homologous recombination by means of preparing a plate lysate on a pRScysE-carrying recA^+ strain (e.g. YMC9, ATCC 3397) using the λRS45 phage (Simons et al., 1987, Gene 53: 85-96).
The cysE strain JM15, which was infected with the heterogeneous lambda lysate and subsequently plated on kanamycin-containing (25 mg/L) LB plates, was used for selecting for the recombinant RS45 derivatives. The lysogenic, kanamycin-resistant clones which were obtained were then tested for their ability to grow on minimal medium plates without cysteine. A clone which was in each case cysteine-prototrophic was selected and used for preparing a homogeneous cysE λ lysate (by means of UV induction, Simons et al., 1987, Gene 53: 85-96).
The JM15 stain was infected with these homogeneous cysE λ lysates which were obtained in each case. The resulting JM15attλ::cysE strains were cultured as described in Example 6. Instead of tetracycline, the respective media in each case contained 25 mg of kanamycin per L as the selection agent.

production strain JM15 = assay: Cysteine production in 1 L fermenter, JM15 with plasmid-encoded cysE alleles; format: cell-based, E. coli; details: 48 h, JM15 transformed with plasmid
Description: Influence of different, plasmid-encoded cysE alleles on the production of L-cysteine or products derived from L-cysteine in a 1 L fermenter using the host strain JM15 20 mL of LB medium (1% tryptone, 0.5% yeast extract, 0.5% NaCl) contained in a 100 mL Erlenmeyer flask were inoculated with a single colony of the production strain JM15 (CGSC#5042) which had been transformed with the respective cysE plasmid.
After having been incubated for 7 hours in a bacterial shaker (30° C., 150 rpm), the respective preliminary cultures were transferred to 100 mL of SM1 medium. The SM1 medium contained 5 g/L glucose, 5 mg/L vitamin B1, 3 g/l KH2 PO4, 12 g/L K2 HPO4, 0.3 g/L MgSO4×7 H2 O, 0.1 g/L NaCl, 5 g/L (NH4)2 SO4, 14.7 mg/L CaCl2×2 H2 O, 2 mg/L FeSO4×2 H2 O, 1 g/L Na3 citrate×2 H2 O, 1 ml/L trace element solution and 25 mg/L tetracycline. The trace element solution was composed of 0.15 g/L Na2 MoO4×2 H2 O, 2.5 g/L H3 BO3, 0.7 g/L CoCl2×6 H2 O, 0.25 g/L CuSO4×5 H2 O, 1.6 g/L MnCl2×4 H2 O and 0.3 g/L ZnSO4×7 H2 O. The cultures were shaken in 1 L Erlenmeyer flasks at 30° C. and at 150 rpm for 17 h. After this incubation, the OD600 was between 4 and 5. The subsequent fermentation was carried out in Braun-Melsungen BIOSTAT M research fermenters. A culturing vessel having a total volume of 2 L was used.
The fermentation medium contained 15 g/L glucose, 5 g/L NaCl, 0.3 g/L MgSO4×7 H2 O, 15 mg/L CaCl2×2 H2 O, 75 mg/L FeSO4×7 H2 O, 1 g/L Na3 citrate×2 H2 O, 1.5 g/L KH2 PO4, 1 mL of trace element solution (see above), 5 mg/L vitamin B1, 2.5 g/L yeast extract (Difco), 2.5 g/L tryptone (Difco) and 25 mg/L tetracycline.
The glucose concentration in the fermenter was initially adjusted to a value of 15 g/L by pumping in a 700 g/L (w/v) (sterilized) glucose solution, and the pH was adjusted to 7.0 by pumping in a 25% NH4 OH solution. After an OD600 of 10 had been reached, 300 mg per hour were supplied from a sterile 100 g/L (w/v) stock solution of thiosulfate. 100 mL of preliminary culture were pumped into the fermenter vessel for the inoculation. The starting volume was approximately 1 L. The cultures were initially stirred at 400 rpm and aerated with 1.5 vvm of compressed air which had been sterilized by passing through a sterile filter. The fermentation was carried out at a temperature of 30° C.
The pH was maintained at a value of 7.0 by means of automatic correction with 25% NH4 OH. The oxygen saturation in the fermentation broth had at no time during the fermentation to fall below 20%; the stirring speed was used to ensure this. The glucose content of the nutrient solution, the optical density and the cysteine content were determined at two- to three-hourly intervals. The glucose content was determined enzymically using a glucose analyzer from YSI. The concentration of the glucose was adjusted to between 10 and 20 g/L by means of continuously feeding in this compound.
The content of cysteine in the medium was determined […] from the cell-free super-natant of the sample using the method of Gaitonde, M. K. (1967), Biochem. J. 104, 627-633.
The fermentation was terminated after 44-50 h.

[4] = Table 1a, 1 mM L-serine, 0.1 mM acetyl-CoA
[5] = Table 1a, serine acetyltransferase activity
[6] = Table 2, alleles from chemical mutagenesis
[7] = Table 4, alleles from site-specific mutagenesis
[8] = Table 1b, carboxyterminal deletions

T1 sequence (P0A9D4 whole entry M256I): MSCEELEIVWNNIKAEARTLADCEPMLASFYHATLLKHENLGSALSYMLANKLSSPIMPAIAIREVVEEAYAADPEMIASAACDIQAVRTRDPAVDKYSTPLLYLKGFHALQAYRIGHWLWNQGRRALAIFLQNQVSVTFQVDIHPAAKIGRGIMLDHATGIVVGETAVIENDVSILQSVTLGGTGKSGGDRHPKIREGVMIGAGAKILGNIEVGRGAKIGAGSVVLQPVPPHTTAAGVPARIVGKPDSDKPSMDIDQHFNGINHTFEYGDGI

Row | Molecule | Ki (serine acetyltransferase; [4]) [µM] | spec. act. (serine acetyltransferase; [5]) [µmol/min/mg] | Cysteine yield (production strain JM15) [g/L] | Ki (serine acetyltransferase; [7]) [µM] | also measured
1 | N[C@@H](CS)C(=O)O [L-cysteine] | – | – | – | – | Ki [1]: ~10 µM; feedback resistance elevated [2]: 10 fold; Ki [3]: 1100 nM
2 | B1 | 50 | 0.156 | 3.4 | – | Ki (serine acetyltransferase; [6]): 50 µM; yields of cysteine (JM15attλ::cysE strains): 1.8 g/L
3 | B2 | 40 | 0.254 | 1.2 | – | Ki (serine acetyltransferase; [6]): 40 µM
4 | B3 | 40 | 0.170 | 1.6 | 40 | yields of cysteine (JM15attλ::cysE strains): 0.5 g/L
5 | B4 | 10 | 0.246 | 1.3 | 10 | –
6 | B5 | 10 | 0.075 | 1.4 | 10 | –
7 | B6 | 2300 | 0.085 | 2.7 | 2300 | –
8 | B7 | – | – | 3.9 | – | spec. act. (serine acetyltransferase; [8]): 0.624 μmol/min x mg; Ki (serine acetyltransferase; [8]): 30 µM; Ki (serine acetyltransferase; Table 6, carboxyterminal deletions): 30 µM

From patent publication US6218168A, “Process for preparing O-acetylserine, L-cysteine and L-cysteine-related products” (Consortium fur elektrochemische Inudstrie GmbH, priority 1995, dated 2001)
